Results from doi:10.1101/2025.07.11.664054.

Assays:
Assay in all cases: ITC
[1] = target: purified OsHPP10-HMA (rice)
[2] = target: purified OsHPP09-HMA (rice)
[3] = target: purified OsHPP11-HMA (rice)
[4] = target: purified OsHIPP21-HMA (rice)

**Q.** For “recombinant AVR-Pia (from UniProt B9WZW9 1-85) (natural protein)”, which Kd [1] is on record?
**A.** 5.26 µM

**Q.** And the Kd [2]?
**A.** 115 nM

**Q.** And the Kd [3]?
**A.** 772 nM

**Q.** And the Kd [4]?
**A.** 1290 nM
